# Results published in the supplement of paper PMC11246515.
# ± gives the standard deviation of the averaged measurements.
# Assay: total protein half-life in vivo (active degradation + dilution); higher = more stable protein
# [1] = E. coli NCM3722 delta-clpP delta-lon delta-hslV, growth: N-lim chemostat, doubling time 6 h
# [2] = E. coli NCM3722 delta-clpP, growth: N-lim chemostat, doubling time 6 h
# [3] = E. coli NCM3722 delta-hslV, growth: N-lim chemostat, doubling time 6 h
# [4] = E. coli NCM3722 delta-lon, growth: N-lim chemostat, doubling time 6 h
# [5] = E. coli NCM3722 delta-smpB, growth: N-lim chemostat, doubling time 6 h
# [6] = wild type E. coli NCM3722, growth: C-lim chemostat, doubling time 3 h
# [7] = wild type E. coli NCM3722, growth: C-lim chemostat, doubling time 6 h
# [8] = wild type E. coli NCM3722, growth: C-lim chemostat, doubling time 12 h
# [9] = wild type E. coli NCM3722, growth: N-lim chemostat, doubling time 6 h
# [10] = wild type E. coli NCM3722, growth: N-lim chemostat, doubling time 12 h
# [11] = wild type E. coli NCM3722, growth: P-lim chemostat, doubling time 6 h
# [12] = wild type E. coli NCM3722, growth: P-lim chemostat, doubling time 12 h
sequence,measurement,setting,value
MFDRYDAGEQAVLVHIYFTQDKDMEDLQEFESLVSSAGVEALQVITGSRKAPHPKYFVGEGKAVEIAEAVKATGASVVLFDHALSPAQERNLERLCECRVIDRTGLILDIFAQRARTHEGKLQVELAQLRHLATRLVRGWTHLERQKGGIGLRGPGETQLETDRRLLRNRIVQIQSRLERVEKQREQGRQSRIKADVPTVSLVGYTNAGKSTLFNRITEARVYAADQLFATLDPTLRRIDVADVGETVLADTVGFIRHLPHDLVAAFKATLQETRQATLLLHVIDAADVRVQENIEAVNTVLEEIDAHEIPTLLVMNKIDMLEDFEPRIDRDEENKPNRVWLSAQTGAGIPQLFQALTERLSGEVAQHTLRLPPQEGRLRSRFYQLQAIEKEWMEEDGSVSLQVRMPIVDWRRLCKQEPALIDYLI,total protein half-life in vivo,[1],5.01 ± 0.4 h
same,total protein half-life in vivo,[2],4.19 ± 0.56 h
same,total protein half-life in vivo,[3],3.18 ± 0.019 h
same,total protein half-life in vivo,[4],3.87 ± 0.12 h
same,total protein half-life in vivo,[5],2.77 ± 0.12 h
same,total protein half-life in vivo,[6],2.34 ± 0.078 h
same,total protein half-life in vivo,[7],4.15 ± 0.4 h
same,total protein half-life in vivo,[8],5.93 ± 0.57 h
same,total protein half-life in vivo,[9],3.31 ± 0.19 h
same,total protein half-life in vivo,[10],4.68 ± 0.19 h
same,total protein half-life in vivo,[11],3.34 ± 0.12 h
same,total protein half-life in vivo,[12],5.9 ± 0.61 h
MFDSTLNPLWQRYILAVQEEVKPALGCTEPISLALAAAVAAAELEGPVERVEAWVSPNLMKNGLGVTVPGTGMVGLPIAAALGALGGNANAGLEVLKDATAQAIADAKALLAAGKVSVKIQEPCDEILFSRAKVWNGEKWACVTIVGGHTNIVHIETHDGVVFTQQACVAEGEQESPLTVLSRTTLAEILKFVNEVPFAAIRFILDSAKLNCALSQEGLSGKWGLHIGATLEKQCERGLLAKDLSSSIVIRTSAASDARMGGATLPAMSNSGSGNQGITATMPVVVVAEHFGADDERLARALMLSHLSAIYIHNQLPRLSALCAATTAAMGAAAGMAWLVDGRYETISMAISSMIGDVSGMICDGASNSCAMKVSTSASAAWKAVLMALDDTAVTGNEGIVAHDVEQSIANLCALASHSMQQTDRQIIEIMASKAR,total protein half-life in vivo,[1],4.74 ± 0.075 h
MFEINPVNNRIQDLTERSDVLRGYLDYDAKKERLEEVNAELEQPDVWNEPERAQALGKERSSLEAVVDTLDQMKQGLEDVSGLLELAVEADDEETFNEAVAELDALEEKLAQLEFRRMFSGEYDSADCYLDIQAGSGGTEAQDWASMLERMYLRWAESRGFKTEIIEESEGEVAGIKSVTIKISGDYAYGWLRTETGVHRLVRKSPFDSGGRRHTSFSSAFVYPEVDDDIDIEINPADLRIDVYRTSGAGGQHVNRTESAVRITHIPTGIVTQCQNDRSQHKNKDQAMKQMKAKLYELEMQKKNAEKQAMEDNKSDIGWGSQIRSYVLDDSRIKDLRTGVETRNTQAVLDGSLDQFIEASLKAGL,total protein half-life in vivo,[1],5.162 ± 0.05 h
same,total protein half-life in vivo,[2],4.669 ± 0.007 h
same,total protein half-life in vivo,[3],4.335 ± 0.033 h
same,total protein half-life in vivo,[4],5.14 ± 0.28 h
same,total protein half-life in vivo,[5],4.282 ± 0.0079 h
same,total protein half-life in vivo,[6],2.79 ± 0.044 h
same,total protein half-life in vivo,[7],4.99 ± 0.27 h
same,total protein half-life in vivo,[8],8.37 ± 0.37 h
same,total protein half-life in vivo,[9],4.37 ± 0.28 h
same,total protein half-life in vivo,[10],6.87 ± 0.013 h
same,total protein half-life in vivo,[11],4.6 ± 0.33 h
same,total protein half-life in vivo,[12],8.54 ± 0.3 h
MFEITGINVSGALKAVVMATGFENPLSSVNEIETKLSALLGSETTGEILFDLLCANGPEWNRFVTLEMKYGRIMLDTAKIIDEQDVPTHILSKLTFTLRNHPEYLEASVLSPDDVRQVLSMDF,total protein half-life in vivo,[1],5.32 ± 0.4 h
same,total protein half-life in vivo,[6],2.73 h
same,total protein half-life in vivo,[7],5.11 h
MFGKLSLDAVPFHEPIVMVTIAGIILGGLALVGLITYFGKWTYLWKEWLTSVDHKRLGIMYIIVAIVMLLRGFADAIMMRSQQALASAGEAGFLPPHHYDQIFTAHGVIMIFFVAMPFVIGLMNLVVPLQIGARDVAFPFLNNLSFWFTVVGVILVNVSLGVGEFAQTGWLAYPPLSGIEYSPGVGVDYWIWSLQLSGIGTTLTGINFFVTILKMRAPGMTMFKMPVFTWASLCANVLIIASFPILTVTVALLTLDRYLGTHFFTNDMGGNMMMYINLIWAWGHPEVYILILPVFGVFSEIAATFSRKRLFGYTSLVWATVCITVLSFIVWLHHFFTMGAGANVNAFFGITTMIIAIPTGVKIFNWLFTMYQGRIVFHSAMLWTIGFIVTFSVGGMTGVLLAVPGADFVLHNSLFLIAHFHNVIIGGVVFGCFAGMTYWWPKAFGFKLNETWGKRAFWFWIIGFFVAFMPLYALGFMGMTRRLSQQIDPQFHTMLMIAASGAVLIALGILCLVIQMYVSIRDRDQNRDLTGDPWGGRTLEWATSSPPPFYNFAVVPHVHERDAFWEMKEKGEAYKKPDHYEEIHMPKNSGAGIVIAAFSTIFGFAMIWHIWWLAIVGFAGMIITWIVKSFDEDVDYYVPVAEIEKLENQHFDEITKAGLKNGN [P0ABI8],total protein half-life in vivo,[1],6.54 ± 0.5 h
same,total protein half-life in vivo,[3],6.89 ± 0.66 h
same,total protein half-life in vivo,[4],6.02 ± 0.071 h
same,total protein half-life in vivo,[5],6.54 ± 0.66 h
same,total protein half-life in vivo,[7],5.86 ± 0.97 h
same,total protein half-life in vivo,[8],14.5 ± 0.29 h
same,total protein half-life in vivo,[9],5.84 ± 0.49 h
same,total protein half-life in vivo,[10],11.9 ± 0.69 h
same,total protein half-life in vivo,[11],6.04 ± 0.13 h
MFILWYSASSTFGKDSDIVMGVRAQQKEKTRRSLVEAAFSQLSAERSFASLSLREVAREAGIAPTSFYRHFRDVDELGLTMVDESGLMLRQLMRQARQRIAKGGSVIRTSVSTFMEFIGNNPNAFRLLLRERSGTSAAFRAAVAREIQHFIAELADYLELENHMPRAFTEAQAEAMVTIVFSAGAEALDVGVEQRRQLEERLVLQLRMISKGAYYWYRREQEKTAIIPGNVKDE [P0ACU5],total protein half-life in vivo,[1],6.31 ± 0.35 h
same,total protein half-life in vivo,[2],5.81 ± 0.25 h
same,total protein half-life in vivo,[3],6.25 ± 0.1 h
same,total protein half-life in vivo,[5],5.957 ± 0.021 h
same,total protein half-life in vivo,[6],2.73 ± 0.18 h
same,total protein half-life in vivo,[7],5.97 ± 0.75 h
same,total protein half-life in vivo,[8],11.2 ± 2.1 h
same,total protein half-life in vivo,[9],5.71 ± 0.12 h
same,total protein half-life in vivo,[10],10.4 ± 1.6 h
same,total protein half-life in vivo,[11],5.31 ± 0.57 h
same,total protein half-life in vivo,[12],10.88 ± 0.052 h
MFKEIFTRLIRHLPSRLVHRDPLPGAQQTVNTVVPPSLSAHCLKMAVMPEEELWKTFDTHPEGLNQAEVESAREQHGENKLPAQQPSPWWVHLWVCYRNPFNILLTILGAISYATEDLFAAGVIALMVAISTLLNFIQEARSTKAADALKAMVSNTATVLRVINDKGENGWLEIPIDQLVPGDIIKLAAGDMIPADLRILQARDLFVAQASLTGESLPVEKAATTRQPEHSNPLECDTLCFMGTTVVSGTAQAMVIATGANTWFGQLAGRVSEQESEPNAFQQGISRVSMLLIRFMLVMAPVVLLINGYTKGDWWEAALFALSVAVGLTPEMLPMIVTSTLARGAVKLSKQKVIVKHLDAIQNFGAMDILCTDKTGTLTQDKIVLENHTDISGKTSERVLHSAWLNSHYQTGLKNLLDTAVLEGTDEESARSLASRWQKIDEIPFDFERRRMSVVVAENTEHHQLVCKGALQEILNVCSQVRHNGEIVPLDDIMLRKIKRVTDTLNRQGLRVVAVATKYLPAREGDYQRADESDLILEGYIAFLDPPKETTAPALKALKASGITVKILTGDSELVAAKVCHEVGLDAGEVVIGSDIETLSDDELANLAQRTTLFARLTPMHKERIVTLLKREGHVVGFMGDGINDAPALRAADIGISVDGAVDIAREAADIILLEKSLMVLEEGVIEGRRTFANMLKYIKMTASSNFGNVFSVLVASAFLPFLPMLPLHLLIQNLLYDVSQVAIPFDNVDDEQIQKPQRWNPADLGRFMIFFGPISSIFDILTFCLMWWVFHANTPETQTLFQSGWFVVGLLSQTLIVHMIRTRRVPFIQSCASWPLMIMTVIVMIVGIALPFSPLASYLQLQALPLSYFPWLVAILAGYMTLTQLVKGFYSRRYGWQ [P0ABB8],total protein half-life in vivo,[1],6.31 h
same,total protein half-life in vivo,[2],6.68 ± 0.68 h
same,total protein half-life in vivo,[3],6.44 ± 0.53 h
same,total protein half-life in vivo,[5],5.89 ± 0.47 h
same,total protein half-life in vivo,[7],6.91 ± 0.4 h
same,total protein half-life in vivo,[8],14.8 ± 0.69 h
same,total protein half-life in vivo,[9],6.72 ± 0.55 h
same,total protein half-life in vivo,[10],14.4 ± 1.3 h
same,total protein half-life in vivo,[11],6.71 ± 0.3 h
